Residue numbers refer to the chain shown, from its start. Where two headings read alike, the source gives them in different places.
T1: Avi/His-HuIL18BPa (recombinant human IL-18BP isoform A with Avi and poly-His tags) (human, biotinylated with BirA on the Avi tag in some assays)
T1 chain: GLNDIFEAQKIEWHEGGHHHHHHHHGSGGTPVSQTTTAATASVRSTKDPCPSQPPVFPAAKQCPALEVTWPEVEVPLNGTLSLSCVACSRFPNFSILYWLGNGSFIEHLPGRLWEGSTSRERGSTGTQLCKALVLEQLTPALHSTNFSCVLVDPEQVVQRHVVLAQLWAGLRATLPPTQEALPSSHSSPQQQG

T2: Avi/HisMsIL18BPd (recombinant mouse IL-18BP with Avi and poly-His tags) (mouse, biotinylated with BirA on the Avi tag in some assays)
T2 chain: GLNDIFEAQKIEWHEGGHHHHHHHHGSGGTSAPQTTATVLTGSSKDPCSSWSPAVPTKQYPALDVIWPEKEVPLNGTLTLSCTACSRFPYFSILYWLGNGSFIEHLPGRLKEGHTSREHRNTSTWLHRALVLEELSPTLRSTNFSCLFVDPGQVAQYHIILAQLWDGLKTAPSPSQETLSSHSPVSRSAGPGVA

T3: His/Avi-CynoIL18BP (recombinant cynomolgus IL-18BP with His and Avi tags) (cynomolgus monkey)
T3 construct: also called cynomolgus IL-18BP-Avi-His
T3 chain: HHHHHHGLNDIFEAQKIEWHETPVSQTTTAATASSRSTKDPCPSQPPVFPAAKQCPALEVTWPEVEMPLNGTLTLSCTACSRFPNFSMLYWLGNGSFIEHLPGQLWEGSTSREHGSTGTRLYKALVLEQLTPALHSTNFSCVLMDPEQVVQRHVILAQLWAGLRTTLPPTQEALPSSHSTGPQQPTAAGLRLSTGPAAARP

T4: mouse IL-18BPd-human IgG Fc (R&D Systems, Cat. #122-BP-100) (mouse; human, UniProt Q9Z0M9 29-193)
T4 construct: Bought; also called mouse IL-18BPd-Fc Chimera
T4 sequence (looked up): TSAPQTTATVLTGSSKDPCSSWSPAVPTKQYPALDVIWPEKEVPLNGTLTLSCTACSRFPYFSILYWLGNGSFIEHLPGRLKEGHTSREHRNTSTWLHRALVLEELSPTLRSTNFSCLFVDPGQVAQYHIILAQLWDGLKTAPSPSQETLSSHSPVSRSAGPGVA

B1: anti-IL-18BP antibody variant BP-04.29 (antibody, V domains shown)
VH: QVQLVQSGAEVKKPGASVKVSCKASGYTFTDYDMHWVRQAPGQGLEWMGIISTYYGDVSYAQKFQGRVTMTRDKSTSTVYMELSSLRSEDTAVYYCARSGTYNYGTRESHALDYWGQGTLVTVSS
VL: DIQMTQSPSSVSASVGDRVTITCRASDNVYSNLAWYQQKPGKAPKLLIYGAISLADGVPSRFSGSGSGTDFTLTISSLQPEDFATYYCQHFWGNPYTFGQGTKLEIK
B2: anti-IL18BP antibody BP-14 (antibody, human IgG1, V domains shown)
VH: QVQLVQSGAEVKKPGASVKVSCKASGYTFTGYYMHWVRQAPGQGLEWMGIINPRGGSTSHAQKFQGRVTMTRDTSTSTVYMELSSLRSEDTAVYYCARGLELHWFDPWGQGTLVTVSS
VL: DIQMTQSPSSLSASVGDRVTITCRASQNIRSWLAWYQQKPGKAPKLLIYAASSLQSGVPSRFSGSGSGTDFTLTISSLQPEDFATYYCQQANSFPYTFGQGTKLEIK
B3: anti-IL18BP antibody BP-07 (antibody, human IgG1, V domains shown)
VH: EVQLQQSGPELVKPGASVKISCRASGFTITDYNMDWVRQSHGKSLEWIGNINLNNGGSIYNQKFKGKATLTIDKSSSTAYMELRSLTSEDTAVYYCARSDTTVVASRYYAMDYWGQGTSVTVSS
VL: DIVLTQSPASLAMSLGKRATISCRASESVSIIGTNLIHWYQQKPGQPPKLLIYHASNLETGVPVRFSGSGSRTDFTLTIDPVEEDDVAIYYCLQSRKIPPTFGGGTKLEIK
B4: anti-IL18BP antibody BP-01 (antibody, human IgG1, V domains shown)
VH: QVQLQQSGPEVVRPGVSVKISCKGSGYTFTDFAMYWVKQSHAKSLEWIGVISTDNGDTSYNQKFKGKATMTVDKSSSTAYMELDRLTSEDSAIYYCARSRGPFDYWGQGTALTVSS
VL: DIVMTQSHKFKSTSVGDRVNITCKASQDVGTAVAWYQQKPGQSPKLLIYWASTRHIGVPDRFTGSGSGTDFTLTIRNVQSEDLADYFCQRYSSYPWTFGGGTKLEIK
B5: anti-IL18BP antibody BP-09 (antibody, human IgG1, V domains shown)
VH: QVQLQQSGAELVRPGASVTLSCKASGYRFTDYAMHWVKQTPVHGLQWIGIIDPETGDTAFNQKFKGKATLTADKSSSTAYMELSSLTSEDSAVYYCTRPRGAMDYWGQGTSVTVSS
VL: B4 VL with K11M, V15G, N20S, Q42I, I56T, T74A, R76S, R90Q, Y94H, W96Y

Legend:
[1] = biological target: T1, Avi/His-HuIL18BPa (recombinant human …); experiment: cell-based or functional assay
[2] = biological target: T2, Avi/HisMsIL18BPd (recombinant mouse …); experiment: cell-based or functional assay
[3] = biological target: T1, Avi/His-HuIL18BPa (recombinant human …); experiment: SPR Biacore T200, IgG captured on Protein A/G
[4] = biological target: T3, His/Avi-CynoIL18BP (recombinant …); experiment: SPR Biacore T200, IgG captured on Protein A/G
[5] = biological target: T1, Avi/His-HuIL18BPa (recombinant human …); experiment: ELISA, coated IL-18BP
[6] = biological target: T2, Avi/HisMsIL18BPd (recombinant mouse …); experiment: ELISA, coated IL-18BP
[7] = biological target: T1, Avi/His-HuIL18BPa (recombinant human …); experiment: cell-based or functional assay
[8] = biological target: T2, Avi/HisMsIL18BPd (recombinant mouse …); experiment: cell-based or functional assay
[9] = biological target: T1, Avi/His-HuIL18BPa (recombinant human …); experiment: SPR Carterra LSA, IgG immobilized
[10] = biological target: T1, Avi/His-HuIL18BPa (recombinant human …); experiment: blocking ELISA, competitor human IL-18
[11] = biological target: T4, mouse IL-18BPd-human IgG Fc (R&D …); experiment: blocking ELISA, competitor mouse IL-18
[12] = biological target: T3, His/Avi-CynoIL18BP (recombinant …); experiment: ELISA, coated IL-18BP
[13] = biological target: T3, His/Avi-CynoIL18BP (recombinant …); experiment: blocking ELISA, competitor rhesus IL-18
[14] = biological target: T3, His/Avi-CynoIL18BP (recombinant …); experiment: cell-based or functional assay
[15] = biological target: T3, His/Avi-CynoIL18BP (recombinant …); experiment: SPR Carterra LSA, IgG immobilized

| Binder | ELISA binding ratio (fold-change over background) [5] [fold over background] | ELISA binding ratio (fold-change over background) [6] [fold over background] | EC50 of IFNγ release, human PBMC [7] [nM] | Fold change of IFNγ at 10 µg/ml vs baseline, human PBMC [7] [fold] | EC50 of IFNγ release, mouse splenocytes [8] [nM] | Fold change of IFNγ at 10 µg/ml vs baseline, mouse splenocytes [8] [fold] | Kd [9] [nM] | blocking ELISA signal normalized to isotype control (=1) [10] | blocking ELISA signal normalized to isotype control (=1) [11] | ELISA binding ratio (fold-change over background) [12] [fold over background] | blocking ELISA signal normalized to isotype control (=1) [13] | % of Max Gamma, human NK cells [14] [%] | EC50 of IFNγ release, human NK cells [14] [nM] | Kd [15] [nM] | further results |
| --- | --- | --- | --- | --- | --- | --- | --- | --- | --- | --- | --- | --- | --- | --- | --- |
| B1 |  |  |  |  |  |  |  |  |  |  |  |  |  |  | EC50 of IFNγ release, human PBMCs [1]: 3.53 nM; EC50 of IFNγ release, mouse splenocytes [2]: 45.5 nM; Kd [3]: 16 nM; koff [3]: 0.0062 s⁻¹; kon [3]: 390000 M⁻¹ s⁻¹; Kd [4]: 32 nM; koff [4]: 0.011 s⁻¹; kon [4]: 340000 M⁻¹ s⁻¹ |
| B2 | 36.3 | 45.1 | 3.47 | 8.86 | 2.93 | 3.49 | 3.2 | 0.069 ratio to isotype control | 0.202 ratio to isotype control |  |  |  |  |  |  |
| B3 | 38.5 | 39.3 | 1.66 | 16.6 | 8.16 | 2.78 | 2.7 | 0.147 ratio to isotype control | 0.156 ratio to isotype control | 31.1 | 0.999 ratio to isotype control |  |  |  |  |
| B4 | 40.7 | 36.7 | 0.75 | 14.9 | 8.36 | 1.65 |  | 0.076 ratio to isotype control | 0.316 ratio to isotype control | 47.4 | 0.795 ratio to isotype control | 52.2 | 12.5 | 12.1 |  |
| B5 | 44.4 | 32.7 | 1.41 | 15.4 | 426 | 2.88 | 2.01 |  |  | 44.9 | 0.315 ratio to isotype control | 46.6 | 51.7 | 1.4 |  |

From patent US20250333523A1 (Alector, published 2025)
